Data from patent US8202696B2, “Means for use in treating diseases correlated with or caused by non-physiological levels of microtubule-associated PP2Ac” (Max-Planck-Gessellschaft zur Forderung der Wissenschaften …, priority 2002, dated 2012).
Where no end group is shown, it is not given here.

Legend:
MID1/PP2A complex = target: T1, MID1/PP2A complex (Homo sapiens, UniProt P78318); test: hFused phosphorylation in cells co-expressing hFused and B-Box1, Western blot; assay type: cell-based
T1 construct: endogenous in cells
T1 sequence (P78318 1-339): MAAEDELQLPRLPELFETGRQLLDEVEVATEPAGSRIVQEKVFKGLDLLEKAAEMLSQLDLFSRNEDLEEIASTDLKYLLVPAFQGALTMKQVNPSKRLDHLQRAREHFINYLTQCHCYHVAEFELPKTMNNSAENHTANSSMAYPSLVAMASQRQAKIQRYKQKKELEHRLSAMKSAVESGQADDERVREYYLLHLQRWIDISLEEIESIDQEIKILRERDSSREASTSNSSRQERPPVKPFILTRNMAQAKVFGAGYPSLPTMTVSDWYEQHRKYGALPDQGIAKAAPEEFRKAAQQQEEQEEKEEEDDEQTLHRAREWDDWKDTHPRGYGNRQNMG
Description: 8×10^5 cells were transfected with hFused-V5 (aa 1-1335) in presence and absence of MYC-B-BOX1 (aa 110-167 of the MID1 protein) using Qiagen polyfect transfection reagent according to the manufacturer's instructions. Cell pellets were resuspended in magic mix (48% urea, 15 mM Tris-HCl, 8.7% glycerin, 1% SDS, 0.004% Bromphenol Blue, 143 mM β-Mercaptoethanol). After sonification, cell lysate of cells expressing hFused and hFused together with B-Box1 was separated on a 6% SDS-gel (200 μg protein loaded in each lane), blotted on PVDF-membranes and incubated with anti-V5-antibody (1:3000). Secondary HRP-antimouse-antibody was diluted 1:2000.
A dominant-negative effect of the B-Box1-peptide leading to an inhibition of […] induced ubiquitination of microtubules-associated PP2A and resulting in a enrichment of microtubules-associated PP2A was shown previously.
Cell lysate of cells expressing only hFused (con) and hFused together with the B-Box1 (+B-Box1) was separated on an SDS-Page, blotted and incubated with an anti-V5-antibody. In order to stop all kinase and phosphatases directly after cell lysis, cells were lysed in an SDS- and urea-containing buffer.

tau protein = test: Tau-1 and pan-Tau immunofluorescence in transfected postnatal sympathetic neurons; assay type: cell-based, rat; conditions: compared to non-transfected neurons = 100%, two days after transfection
Description: Peripheral sympathetic neurons were obtained from postnatal day 1-3 rats. […] Following mechanical dissociation the cell suspension was filtered through a 40 μm nylon mesh and seeded at 6 SCGs per well into uncoated Falcon dishes for preplating purposes. After 4 hours neurons were transferred into glass floor dishes (Willco Wells B.V., gwst 3522, 3.8 cm^2 area/dish) coated with poly-D-lysine/laminin. Neurons were maintained in RPMI medium containing antibiotics, N2 additive (Invitrogen) and 100 ng/ml nerve growth factor (NGF; Sigma) at 37° C. in a humidified atmosphere with 5% CO2.
Neurons were transfected 2 hours after seeding applying the biolistic approach. This method uses a hand held gun to bombard dissociated neurons at high velocity with micron-size gold particles loaded with DNA. The coating of gold particles with DNA was achieved using a modification of the manufacturer's instructions (Bio-Rad Laboratories). For preparation of 35 cartridges 25 mg gold particles (1.6 μm diameter) were suspended in 50 μl of 0.05 M spermidine. After vortexing and sonication for 5 seconds, 50 μg plasmid DNA dissolved in 50 μl TE buffer was added (for co-transfection experiments, 80 μg were used, i.e., 40 μg Plasmid I+40 μg Plasmid 2). The amount of gold particles and DNA corresponds to a microcarrier loading quantity (MLQ) of about 0.7 (mg/cartridge) and to a DNA loading ratio (DLR) of 2 (μg/mg) for single transfection experiments. DNA, spermidine and gold were then mixed for 5 sec in a variable speed vortexer. At low vortexing speed, 50 μl 1 M CaCl2 was added dropwise to the mixture for association of DNA with the gold particles followed by precipitation for 10 min at room temperature. The supernatant was removed and the pellet rinsed with 800 μl of 100% ethanol. Washing was repeated two times with centrifugation steps at 3000 g between each wash. […]
A fully motorized Zeiss Axiovert 100M microscope equipped for inverted fluorescence was used for visualization of fluorescent neurons. […]

Ratio between phosphorylated and dephosphorylated hFused-form (MID1/PP2A complex; FIG. 15c, control 10.3): 3
Ratio between phosphorylated and dephosphorylated hFused-form (MID1/PP2A complex; FIG. 16c, reproduction, control 8.3): 3
Substance: B-Box1: peptide derived from the MID1 domain that is responsible for α4 binding (amino acids 108-165), expressed from plasmid (ANTMTSAEKVLCQFCDQDPAQDAVKTCVTCEVSYCDECLKATHPNKKPFTGHRLIEPI; cysteine pairing not given here; also: myc tag; UniProt O15344 108-165, looked up, fragment)
Tau-1 immunoreactivity (dephosphorylated tau) (tau protein; listed as B-BOX1): significantly increased
Tau-1 immunoreactivity (dephosphorylated tau) (tau protein; listed as Bbox1): pronounced increase in fluorescence
